Test results published in patent US20200109188A1 (AstraZeneca / MedImmune, published 2020).
Where two headings read alike, the source gives them in different places.

How the values were obtained:
HA of H1-BS10 virus = assay: cell-based or functional assay
[1] = biological target: HA of ca A/Hong Kong/213/03 (H5N1) virus (influenza A virus); assay: cell-based or functional assay
[2] = biological target: T1, HA of H3-LA87 (A/Los Angeles/7/09 (H3N2)) virus (influenza A virus); assay: cell-based or functional assay
[3] = biological target: HA of A/Wisconsin/67/05 (H3N2) virus (influenza A virus); assay: cell-based or functional assay
[4] = biological target: HA of A/Kawasaki/9/86 (H1N1) virus (influenza A virus); assay: cell-based or functional assay
[5] = biological target: HA of ca A/Beijing/262/95 (H1N1) virus (influenza A virus); assay: cell-based or functional assay
[6] = biological target: HA of ca A/Sydney/5/97 (H3N2) virus (influenza A virus); assay: cell-based or functional assay
[7] = biological target: HA of A/Fort Monmouth/1/47 (H1N1) virus (influenza A virus); assay: cell-based or functional assay
[8] = biological target: HA of A/New Jersey/8/76 (H1N1) virus (influenza A virus); assay: cell-based or functional assay
[9] = biological target: HA of ca A/Perth/16/09 (H3N2) virus (influenza A virus); assay: cell-based or functional assay
[10] = biological target: HA of ca A/Japan/57 (H2N2) virus (influenza A virus); assay: cell-based or functional assay
[11] = biological target: HA of ca A/Anhui/1/13 (H7N9) virus (influenza A virus); assay: cell-based or functional assay
[12] = biological target: HA of A/Victoria/361/11 (H3N2) virus (influenza A virus); assay: cell-based or functional assay
[13] = biological target: T2, HA of ca A/Netherlands/219/03 (H7N7) virus (influenza A virus); assay: cell-based or functional assay
[14] = biological target: HA of ca A/Panama/2007/99 (H3N2) virus (influenza A virus); assay: cell-based or functional assay
[15] = biological target: HA of ca A/mallard/Alberta/89/85 (H6N2) virus (influenza A virus); assay: cell-based or functional assay
[16] = biological target: T3, HA of ca A/New Caledonia/20/99 (H1N1) virus (influenza A virus); assay: cell-based or functional assay
[17] = biological target: HA of A/Hong Kong/8/68 (H3N2) virus (influenza A virus); assay: cell-based or functional assay
[18] = biological target: HA of ca A/teal/Hong Kong/W312/97 (H6N1) virus (influenza A virus); assay: cell-based or functional assay
[19] = biological target: T4, HA of ca A/swine/Missouri/06 (H2N3) virus (influenza A virus); assay: cell-based or functional assay
[20] = biological target: HA of ca A/Texas/36/91 (H1N1) virus (influenza A virus); assay: cell-based or functional assay
[21] = biological target: HA of ca A/Vietnam/1203/04 (H5N1) virus (influenza A virus); assay: cell-based or functional assay
[22] = biological target: HA of ca A/Brit. Columbia/CN-6/04 (H7N3-LP) virus (influenza A virus); assay: cell-based or functional assay
[23] = biological target: HA of ca A/chicken/Hong Kong/G9/97 (H9N2) virus (influenza A virus); assay: cell-based or functional assay
[24] = biological target: HA of A/Victoria/3/75 (H3N2) virus (influenza A virus, UniProt P03435 17-567); assay: cell-based or functional assay
[25] = biological target: HA subtype H4 (A/duck/Czechoslovakia/56 (H4N6)) on HEK cells (influenza A virus, UniProt P19696 17-564); assay: flow cytometry, HA-transfected HEK cells, 5 ug/ml antibody
[26] = biological target: HA subtype H13 (A/gull/Maryland/704/77 (H13N6)) on HEK cells (influenza A virus, UniProt P13103 19-566); assay: as above
[27] = biological target: HA subtype H14 (A/mallard/Astrakhan/263/82 (H14N5)) on HEK cells (influenza A virus, UniProt P26136 18-568); assay: as above
[28] = biological target: HA subtype H10 (A/chicken/Germany/N49 (H10N7)) on HEK cells (influenza A virus, UniProt P12581 17-561); assay: as above
[29] = biological target: T1, HA of H3-LA87 (A/Los Angeles/7/09 …); assay: cell-based or functional assay; remark: listed apart in the source
[30] = biological target: HA of A/Kawasaki/9/86 (H1N1) virus (influenza A virus); assay: cell-based or functional assay; remark: listed apart in the source
[31] = biological target: HA of ca A/Beijing/262/95 (H1N1) virus (influenza A virus); assay: cell-based or functional assay; remark: listed apart in the source
[32] = biological target: HA of A/New Jersey/8/76 (H1N1) virus (influenza A virus); assay: cell-based or functional assay; remark: listed apart in the source
[33] = biological target: T2, HA of ca A/Netherlands/219/03 (H7N7) …; assay: cell-based or functional assay; remark: listed apart in the source
[34] = biological target: HA of ca A/Panama/2007/99 (H3N2) virus (influenza A virus); assay: cell-based or functional assay; remark: listed apart in the source
[35] = biological target: T3, HA of ca A/New Caledonia/20/99 (H1N1) …; assay: cell-based or functional assay; remark: listed apart in the source
[36] = biological target: HA of A/Hong Kong/8/68 (H3N2) virus (influenza A virus); assay: cell-based or functional assay; remark: listed apart in the source
[37] = biological target: T4, HA of ca A/swine/Missouri/06 (H2N3) …; assay: cell-based or functional assay; remark: listed apart in the source

HA subtype H4 (A/duck/Czechoslovakia/56 (H4N6)) on HEK cells, sequence (P19696 17-564): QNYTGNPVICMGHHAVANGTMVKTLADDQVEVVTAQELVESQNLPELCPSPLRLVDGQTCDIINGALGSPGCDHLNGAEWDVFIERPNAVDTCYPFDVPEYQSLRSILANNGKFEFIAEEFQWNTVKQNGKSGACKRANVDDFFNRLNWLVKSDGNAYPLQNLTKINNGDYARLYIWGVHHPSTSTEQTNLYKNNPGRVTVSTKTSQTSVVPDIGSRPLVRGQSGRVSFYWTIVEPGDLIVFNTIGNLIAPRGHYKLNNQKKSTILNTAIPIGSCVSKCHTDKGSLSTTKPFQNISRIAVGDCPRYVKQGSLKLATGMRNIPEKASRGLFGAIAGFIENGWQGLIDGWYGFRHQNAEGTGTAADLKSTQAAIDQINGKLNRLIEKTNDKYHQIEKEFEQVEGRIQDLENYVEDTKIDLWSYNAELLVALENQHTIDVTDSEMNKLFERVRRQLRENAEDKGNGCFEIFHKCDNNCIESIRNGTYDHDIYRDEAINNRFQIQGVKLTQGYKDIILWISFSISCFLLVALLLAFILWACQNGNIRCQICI
HA subtype H14 (A/mallard/Astrakhan/263/82 (H14N5)) on HEK cells, sequence (P26136 18-568): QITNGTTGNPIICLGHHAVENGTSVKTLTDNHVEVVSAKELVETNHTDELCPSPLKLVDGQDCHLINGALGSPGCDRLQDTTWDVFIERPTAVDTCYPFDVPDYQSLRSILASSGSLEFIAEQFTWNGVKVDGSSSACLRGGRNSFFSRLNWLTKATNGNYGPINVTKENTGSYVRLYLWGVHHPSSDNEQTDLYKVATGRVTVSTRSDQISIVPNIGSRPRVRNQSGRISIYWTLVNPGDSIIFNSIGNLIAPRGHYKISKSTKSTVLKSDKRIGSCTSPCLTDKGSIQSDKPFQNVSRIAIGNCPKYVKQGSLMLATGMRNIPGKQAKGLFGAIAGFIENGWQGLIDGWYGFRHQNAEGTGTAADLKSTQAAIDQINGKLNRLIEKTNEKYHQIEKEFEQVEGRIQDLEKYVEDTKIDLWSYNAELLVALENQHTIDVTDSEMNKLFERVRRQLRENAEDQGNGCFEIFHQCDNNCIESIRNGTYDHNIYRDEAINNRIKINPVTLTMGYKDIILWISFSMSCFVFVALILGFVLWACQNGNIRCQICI
HA subtype H13 (A/gull/Maryland/704/77 (H13N6)) on HEK cells, sequence (P13103 19-566): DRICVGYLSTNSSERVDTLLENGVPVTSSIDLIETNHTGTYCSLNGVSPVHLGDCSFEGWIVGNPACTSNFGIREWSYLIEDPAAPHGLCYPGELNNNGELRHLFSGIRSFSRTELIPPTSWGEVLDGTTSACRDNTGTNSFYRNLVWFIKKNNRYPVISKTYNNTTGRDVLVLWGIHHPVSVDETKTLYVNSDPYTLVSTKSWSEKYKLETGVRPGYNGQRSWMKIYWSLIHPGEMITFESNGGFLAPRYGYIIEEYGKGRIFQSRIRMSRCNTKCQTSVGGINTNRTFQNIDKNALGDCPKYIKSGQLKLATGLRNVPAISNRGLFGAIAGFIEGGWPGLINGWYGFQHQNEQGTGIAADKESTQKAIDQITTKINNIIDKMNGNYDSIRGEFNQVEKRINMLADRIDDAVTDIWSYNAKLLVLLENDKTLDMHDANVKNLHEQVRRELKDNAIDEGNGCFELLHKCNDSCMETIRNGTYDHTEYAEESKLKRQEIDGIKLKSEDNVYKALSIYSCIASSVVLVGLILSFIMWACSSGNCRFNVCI
HA subtype H10 (A/chicken/Germany/N49 (H10N7)) on HEK cells, sequence (P12581 17-561): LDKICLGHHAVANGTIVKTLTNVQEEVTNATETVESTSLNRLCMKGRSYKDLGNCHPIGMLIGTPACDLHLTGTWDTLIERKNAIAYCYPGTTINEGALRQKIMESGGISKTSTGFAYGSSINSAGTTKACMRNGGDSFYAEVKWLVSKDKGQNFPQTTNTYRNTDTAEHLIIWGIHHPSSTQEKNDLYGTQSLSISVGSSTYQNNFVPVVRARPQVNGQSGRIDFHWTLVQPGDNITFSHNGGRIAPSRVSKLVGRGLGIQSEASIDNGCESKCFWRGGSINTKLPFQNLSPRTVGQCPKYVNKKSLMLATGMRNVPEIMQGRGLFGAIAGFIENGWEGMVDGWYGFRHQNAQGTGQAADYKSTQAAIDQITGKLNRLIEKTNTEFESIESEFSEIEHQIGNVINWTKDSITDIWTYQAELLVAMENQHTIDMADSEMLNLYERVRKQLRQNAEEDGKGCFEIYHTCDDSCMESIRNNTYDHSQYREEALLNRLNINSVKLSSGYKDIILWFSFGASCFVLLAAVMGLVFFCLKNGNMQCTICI
HA of A/Victoria/3/75 (H3N2) virus, sequence (P03435 17-567 limits assumed): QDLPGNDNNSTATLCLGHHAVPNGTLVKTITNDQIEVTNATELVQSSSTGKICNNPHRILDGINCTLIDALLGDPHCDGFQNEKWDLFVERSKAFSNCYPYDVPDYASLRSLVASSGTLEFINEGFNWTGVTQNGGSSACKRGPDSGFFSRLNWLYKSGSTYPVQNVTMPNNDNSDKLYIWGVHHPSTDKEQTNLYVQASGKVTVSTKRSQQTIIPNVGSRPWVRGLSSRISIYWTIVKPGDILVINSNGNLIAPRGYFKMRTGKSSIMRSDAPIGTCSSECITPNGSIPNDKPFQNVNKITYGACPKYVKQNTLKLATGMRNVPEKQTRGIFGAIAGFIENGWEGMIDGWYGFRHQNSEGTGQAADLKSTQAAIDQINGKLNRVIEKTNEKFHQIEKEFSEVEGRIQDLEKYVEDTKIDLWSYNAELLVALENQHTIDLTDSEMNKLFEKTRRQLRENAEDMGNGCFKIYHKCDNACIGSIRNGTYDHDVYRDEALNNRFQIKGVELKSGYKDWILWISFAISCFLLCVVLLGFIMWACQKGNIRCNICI

B1: Antibody 3 (antibody, V domains shown)
VH: QVQLQESGPGLVKPSQTLSLTCAISGDSVSSNNAVWNWIRQSPSRGLEWLGRTYYRSKWYNDYAESVKSRITVNPDTSKNQFSLHLKSVTPEDTAVFYCVRSGHITVFGVNVDAFDMWGQGTMVTVSS
VL: DIQMTQSPSSLSASVGDRVTITCRTSQSLSSYLHWYQQKPGKAPKLLIYAASSLQSGVPSRFSGSGSGTDFTLTISSLQPEDFATYYCQQSRTFGQGTKVEIK
Q: How did the “Neutralization IC50, H1-BS10” value (HA of H1-BS10 virus) turn out when B1 was run?
A: Its value is 2.16 µg/mL.

Q: And the “Neutralization IC50, H5-HK03” value [1]?
A: The value was 0.71 µg/mL.

Q: What about the “Neutralization IC50, H3-LA87” value [2] of the same binder?
A: Its value is 2.04 µg/mL.

Q: What about the “Neutralization IC50, H3-Wl05” value [3] of the same binder?
A: The value was 2.62 µg/mL.

Q: What about the “Neutralization IC50, H1-Kaw86” value [4] of the same binder?
A: Its value is 1.01 µg/mL.

Q: What about the “Neutralization IC50, H1-BJ95” value [5] of the same binder?
A: The value was 2.98 µg/mL.

Q: What about the “Neutralization IC50, H3-Syd97” value [6] of the same binder?
A: Its value is 6.5 µg/mL.

Q: What about the “Neutralization IC50, H1-FM47” value [7] of the same binder?
A: Its value is 1.04 µg/mL.

Q: What about the “Neutralization IC50, H1-NJ76” value [8] of the same binder?
A: The value was 0.57 µg/mL.

Q: And the “Neutralization IC50, H3-Perth09” value [9]?
A: Its value is 1.3 µg/mL.

Q: What about the “Neutralization IC50, H2-JP57” value [10] of the same binder?
A: Its value is 0.46 µg/mL.

Q: What about the “Neutralization IC50, H7-ANU13” value [11] of the same binder?
A: The value was 4.26 µg/mL.

Q: What about the “Neutralization IC50, H3-VC11” value [12] of the same binder?
A: Its value is 3.4 µg/mL.

Q: What about the “Neutralization IC50, H7-NLD03” value [13] of the same binder?
A: The value was 4.74 µg/mL.

Q: What about the “Neutralization IC50, H3-Pa99” value [14] of the same binder?
A: Its value is 9 µg/mL.

Q: What about the “Neutralization IC50, H6-AB85” value [15] of the same binder?
A: The value was 0.69 µg/mL.

Q: What about the “Neutralization IC50, H1-Ncal99” value [16] of the same binder?
A: Its value is 1.16 µg/mL.

Q: And the “Neutralization IC50, H3-HK68” value [17]?
A: Its value is 1.37 µg/mL.

Q: And the “Neutralization IC50, H6-HK97” value [18]?
A: Its value is 0.63 µg/mL.

Q: And the “Neutralization IC50, H2-MO06” value [19]?
A: Its value is 1.09 µg/mL.

Q: And the “Neutralization IC50, H1-TX91” value [20]?
A: Its value is 0.92 µg/mL.

Q: What about the “Neutralization IC50, H5-VM04” value [21] of the same binder?
A: The value was 1.19 µg/mL.

Q: And the “Neutralization IC50, H7-BC04” value [22]?
A: The value was 2.95 µg/mL.

Q: What about the “Neutralization IC50, H9-HK97” value [23] of the same binder?
A: The value was 1.18 µg/mL.

Q: And the “Neutralization IC50, H3-Vic75” value [24]?
A: Its value is 1.12 µg/mL.

Q: Does B1 bind [25]?
A: Result: binds

Q: Does B1 bind [26]?
A: Result: binds

Q: Does B1 bind [27]?
A: Result: binds

Q: Does B1 bind [28]?
A: Result: binds

Q: And the “Neutralization IC50, H3-LA87” value [29]?
A: Its value is 4.19 µg/mL.

Q: What about the “Neutralization IC50, H1-Kaw86” value [30] of the same binder?
A: Its value is 0.58 µg/mL.

Q: And the “Neutralization IC50, H1-BJ95” value [31]?
A: Its value is 3.41 µg/mL.

Q: And the “Neutralization IC50, H1-NJ76” value [32]?
A: The value was 1.41 µg/mL.

Q: What about the “Neutralization IC50, H7-NLD03” value [33] of the same binder?
A: Its value is 4.78 µg/mL.

Q: And the “Neutralization IC50, H3-Pa99” value [34]?
A: Its value is 17.7 µg/mL.

Q: What about the “Neutralization IC50, H1-Ncal99” value [35] of the same binder?
A: Its value is 0.79 µg/mL.

Q: What about the “Neutralization IC50, H3-HK68” value [36] of the same binder?
A: The value was 0.68 µg/mL.

Q: And the “Neutralization IC50, H2-MO06” value [37]?
A: Its value is 2.27 µg/mL.
